According to the supplement of paper PMC12764529:
± gives the half width of the 95% confidence interval.

Legend:
[1] = folding stability dG unfold from chymotrypsin proteolysis; higher = more stable
Procedure, shortened: (§1)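 K50 was inferred by Bayesian fitting of sequencing counts obtained after protease digestion of designed mini-proteins. Unfolding free energy was derived by comparison with a sequence-predicted unfolded-state K50 and a shared folded-state K50, for each protease or both combined. The mini-proteins were under 80 residues, had no cysteine, were carried in a PA-tagged cDNA display construct, and were kept only if AlphaFold2 dimer inter-PAE exceeded 15.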

[2] = folding stability dG unfold from trypsin proteolysis; higher = more stable
Procedure, shortened: as §1

[3] = folding stability dG unfold (combined trypsin and chymotrypsin); higher = more stable
Procedure, shortened: as §1

Sequence	folding stability dG unfold [1] [kcal/mol]	folding stability dG unfold [2] [kcal/mol]	folding stability dG unfold [3] [kcal/mol]
SAGGMKIEVRPLPGDGFVVRLPGDVVALIDPSTGEAVAFFPDGSVARLTITRDPDRPEFTITIEPVGSAGGS [r8_186_TrMRF]	1.89 ± 0.032	1.77 ± 0.059	1.83 ± 0.069
SAGGGSSSSSLTFTYDPATGKVLGSESFTIPSPSGEPRTNVLTLVEKNPSGTLKTTVLTRPVPPTLSSAGGS [r16_595_JUSTAS]	2.62 ± 0.096	1.55 ± 0.1	2.66 ± 0.35
SAGSIEIYIIYPPEDPDQPPTEEEIRSIARSLARQLGLPPKDFPIDVEWRRIDPEDGIYVYEITIEFPSAGG [r19_244_TrROS]	3.57 ± 0.062	2.74 ± 0.059	3.27 ± 0.1
SAGGGSMFSTIYDPNSNNSIEAPLLSIREEDGRPTIEYQLPDGTRVTRPLSELGAFTLTGGAGSLTLPSAGG [r13_211_JUSTAS]	0.552 ± 0.14	0.83 ± 0.052	0.774 ± 0.075
SAGGMPADTPVIPIEILDIRVEPDPESDSYTAEVKVRFPDGTEKTFTIKLPKDATLEDVIEKAKELAASAGG [r13_578_TrMRF]	4.09 ± 0.11	3.83 ± 0.2	4.1 ± 0.18
SAGGSAGGSALEIPFPIKDVKWERNPDGSRTRTFYLKNGWRASLIFNPKNGQMQIDIEPLDSAGGSAGGSAG [r3_438_TrROS]	1.57 ± 0.12	1.8 ± 0.073	1.81 ± 0.17
SAGGSAGGSAGGKLPPGDIIPMEFEAEFPVYKRDPEGGDWEPIGPMRIDFTIIIRLPPGSAGGSAGGSAGGS [r10_1115_TrROS]	2.91 ± 0.14	2.5 ± 0.22	2.67 ± 0.22
SAGGSAGGIMIDSPEQMEEFAKDFFQNGYHEVPIHVMDPNGNWQTFPFTIEVPPPKPEPDPGKKSAGGSAGG [r6_258_TrROS]	0.411 ± 0.25	-0.648 ± 0.12	0.111 ± 0.29
SAGGMYLVKIKVKIDSPTSEKERDLYILAEPDTDVEEIVKKIPGAKNIEIEVEIIPPSENPEIASNPLSAGG [r19_339_JUSTAS]	0.7 ± 0.15	0.645 ± 0.12	0.684 ± 0.25
SAGGSAGGSAGGSSDIVVTSETLPGPTRLVRITIPEKGETIELTLPASESIEQAVALLLSAGGSAGGSAGGS [r4_393_JUSTAS]	0.0828 ± 0.4	0.253 ± 0.1	0.381 ± 0.16
SAGTAKELAELLPGATVEVDEETGTVTVTVELDGYTVRIEIRVDPETGEIVEIRITVTNPDGEEREFELSAG [r5_367_TrROS_Hall]	2.92 ± 0.096	3.01 ± 0.077	2.94 ± 0.062
SAGGSAGGSAGGKKYIIKNKKTNKYIEVDVIEKDGKLYVYDKKTGKVHEVSLKDLEIVPSAGGSAGGSAGGS [r10_28_TrROS_Hall]	2.56 ± 0.036	1.84 ± 0.088	2.33 ± 0.089
SASSSFTLPGLKLEVETQKVSTFPTPDGTPVVLYETTIHFLEVPESLRAEGKPLSLESSVKKLKVVPLPSAG [r14_942_JUSTAS]	0.453 ± 0.33	0.277 ± 0.14	0.391 ± 0.2
SAGGSAGGKKKVIEITVKITLFNENGEEVATFEAKITIIEDKETKEYYAVITFKDGSTLVIKLPSAGGSAGG [r6_923_TrROS_Hall]	5.12 ± 0.2	3.69 ± 0.2	4.87 ± 0.47
SAGGSAGGKTIEITIKLEDGKELKIKIDSPEELDKITSVELIGPGKIKITVNGKTIEITIKPKPSAGGSAGG [r6_206_TrROS_Hall]	2.77 ± 0.072	3.45 ± 0.14	3.2 ± 0.16
SAGGSADNIEFKFPGIEEVTVWPDKIMFKLPNGYYYVITINNIDEIEIIEVIPPVPPPPPEDPDDKSAGGSA [r15_393_TrROS]	2.29 ± 0.11	2.38 ± 0.39	2.4 ± 0.34
SAGGSKWRMYEITLELGDKPVKITVYYMDGNYSVAIKFPPGRKVDIPFDGPMSPEDAAKKALEALGSAGGSA [r2_92_TrROS]	3.579 ± 0.026	2.34 ± 0.056	3.24 ± 0.095
SAEKIYYKVKVKVEIEKDGKPDIELEIEFIVSPEIPPEKVKEFIEKFLKSKGYKIKKIEIETEPIPSLESAG [r14_979_TrMRF]	4.86 ± 0.13	3.95 ± 0.31	5.03 ± 0.29
SAGKKPKVIEKTITIKVYDKKTKKEYEIKIKVRVVKKDGKVIEEFSEEEAKELAKKLAEELKKNKNIKPSAG [r5_426_TrROS_Hall]	2.44 ± 0.04	1.81 ± 0.097	2.22 ± 0.14
SAGGSAGGMKYVVTVELPETGTTRTLTIPDNYTGEENVKKAVEEEAKKLGYSISKIEITKINDKSAGGSAGG [r6_718_JUSTAS]	0.654 ± 0.14	0.367 ± 0.086	0.536 ± 0.12
SAGGSISIPVYSPEDVIEAIEFIERYLREKGFPENEEATRIIVERLEDGRYRVIIEYPTRTIIIDDSAGGSA [r2_120_TrMRF]	3.09 ± 0.033	2.9 ± 0.049	3.01 ± 0.067

Sequence	folding stability dG unfold [1] [kcal/mol]	folding stability dG unfold [2] [kcal/mol]	folding stability dG unfold [3] [kcal/mol]
SAGGSAGGSAGKKKLRLTLPGAEVEYDAATNELTIRLKAPPPPPKTTTKVETKTVLLPGKSAGGSAGGSAGG [r11_149_TrROS_Hall]	1.2 ± 0.095	0.792 ± 0.076	0.989 ± 0.18
SAGGSKLPKNSKVLIIDLGAPKGIKPNDKVKIPKELIKKIKEKNPNVKFYKEYNIGNKTYIFIVIDSAGGSA [r2_383_TrMRF]	2.39 ± 0.059	1.31 ± 0.067	1.96 ± 0.12
SAGGSAGGSKEPIRVDEFEWRKNKDGMDMVQVTFPNNGKDIHLPPEHLDNLEPGDEIPLDDLISAGGSAGGS [r20_3_TrROS]	0.192 ± 0.17	-0.677 ± 0.12	-0.138 ± 0.2
SAGGSAGGSAGNKDYPVIEVTYPFPPGAPASDIKDFAEPFGFESIEFDDNGTVKVYFYLPSAGGSAGGSAGG [r11_961_TrROS]	0.818 ± 0.11	0.737 ± 0.051	0.825 ± 0.087
SAGGSAGGSKITVERNEDGELFVRITFKDGKTITIKAKSVEELKEKLKELGFDVKVEVVERKPSAGGSAGGS [r20_124_TrROS_Hall]	4.58 ± 0.071	2.74 ± 0.084	4.18 ± 0.087
SAGGSMIVKVTVRVDGKEYERTVEVESLEEALELELPELPEGAEVRIEVVDPETGELIETVTLRVPSAGGSA [r2_390_TrROS_Hall]	2.56 ± 0.052	2.3 ± 0.13	2.46 ± 0.15
SAGGSLPLPPGATVETTEVDPANPDRTYKTTTTFTPVPGNTLLATPVVTDPETGTTTTTTTTVPLALGSAGG [r13_268_JUSTAS]	0.809 ± 0.15	0.321 ± 0.054	0.64 ± 0.13
SAGMEATIEIVGHPGDKEAIAVLRPEDKTVVIYKNKDGSYTVEVFEPNPARLIERKELPLEEAIKEALSAGG [r19_188_TrMRF]	1.45 ± 0.064	-0.343 ± 0.12	0.987 ± 0.13
SAGGSAGGSAGSKKKRVITIWIPPNQSIEEAKNFMDEGFPIKEIDVQTRPDGHMMVTITLSAGGSAGGSAGG [r11_97_TrROS]	1.05 ± 0.14	1.56 ± 0.061	1.21 ± 0.14
SVFEMPIKLTLKRRDPDGKGRKVKVTIRIRFEMPPNLPPDDKNDPERRKMHQMMHSNMHERAESLADPLASA [r9_237_TrROS]	1.6 ± 0.36	1.41 ± 0.095	1.67 ± 0.28
SAGGSAGGSGPVLLVRVRPDGTREILDVLPPDEPVENLPAGEFREFRLIPTESLEDALRKALASAGGSAGGS [r12_452_TrMRF]	0.304 ± 0.37	-0.44 ± 0.54	-0.00342 ± 0.21
SAGGSKERTYRVLIRNPDGELEEIEVSEEELEALLSLPPSATVRIVTEDGEEKTVTINVEKVELKESAGGSA [r2_222_TrROS_Hall]	3.48 ± 0.067	1.74 ± 0.11	3.07 ± 0.17
SAARKIAKKLKEAFPNFPIKDIEITEYEPNPNGRPYMNISIQFPNGGKMEIQFDDPEHPEIREAIREIMSAG [r14_143_TrROS]	1.69 ± 0.086	1.59 ± 0.11	1.49 ± 0.19
SAGGSAGGSKKIKITVVVPKEEAEKLLKELEKAGYKIVSVEKKEIPENELVVIEIVIEKPEELSAGGSAGGS [r12_445_TrROS_Hall]	4.13 ± 0.24	3.09 ± 0.14	3.65 ± 0.31
SAGGRYYFVRIEIYNPNNGRPFDIMIPFPGMPAEQVKEQVKEIADELAKQHGMDVKVKVEIQPLPPDSAGGS [r8_185_TrROS]	2.06 ± 0.07	1.73 ± 0.092	1.95 ± 0.17
SAGGSAGGPLENDIPIPLTVPLPGPGTAELFLLPSTGEVLALVEGKPYLVSLEDLKDGVFRLGLSAGGSAGG [r6_939_TrMRF]	0.989 ± 0.17	-0.577 ± 0.36	0.576 ± 0.12
SAGGSAGGSAGGSAKIDLPFPAEITEIRPRPDGSVEIRLSFPTYTVTAIIPPNGIKIYGSAGGSAGGSAGGS [r4_280_TrMRF]	-0.0211 ± 0.11	0.855 ± 0.017	0.487 ± 0.065
SAGSVETFEDPEVGRVVIVPLPGGEVLTIELPPDSITMTLTSPKGGESVTITKKMKPGEEEELIKELASSAG [r5_820_JUSTAS]	-0.603 ± 0.45	-0.521 ± 0.47	-0.358 ± 0.3
SAGSSSVTLFPEYTITTTTLPDGSRSVTINFTNPEEAKKLFEENPEIKELIEKFKKEGWDVKINAKNPSSAG [r14_873_JUSTAS]	3.95 ± 0.17	2.98 ± 0.21	3.67 ± 0.22
SAGGSAGGKIAVIPYVPEEDIPPELRELFGKEGSLSPEEFQELFAEAVARELGEEGAIDAVIVESAGGSAGG [r6_654_TrMRF]	0.721 ± 0.037	0.618 ± 0.032	0.778 ± 0.15
SAGGSAGGWIPVEELAKEFGFSPDFIEQLMKNGYKIEYEYHEPGWVRLSVENPDNGKKREITFPSAGGSAGG [r6_969_TrROS]	2.183 ± 0.019	1.43 ± 0.022	1.92 ± 0.053
